Experimental data taken from patent EP0762881B1.

Molecular target: anti-dnaJ antibodies in sera obtained from patients with early stage RA
Assay: inhibition ELISA; rdnaJ-coated plates, sera 1:100 preincubated with the peptide, goat anti-human IgG detection

Binder: QKRAAYDQYGHAAFE [wild-type dnaJ peptide …]
- inhibition of antibody binding to rdnaJ, fold against control sera: 3 fold
